Columns and labels:
[1] = molecular target: T1, Homo sapiens factor Bb protein (human, UniProt P00751 260-764); test: cell-based or functional assay
[2] = molecular target: T1, Homo sapiens factor Bb protein; test: SPR single cycle kinetics; ratio against VH0/Vκ0
Protocol: All single cycle kinetic experiments were run at 25° C. with HBS-P+running buffer (pH 7. 4) (GE Healthcare, Little Chalfont, UK).
(§1) Antibodies were diluted in running buffer to a final concentration of 1 μg/ml, based on concentrations assessed by ELISA titer. At the start of each cycle, antibodies were loaded onto Fc2, Fc3 and Fc4 of the Protein A chip (GE Healthcare, Little Chalfont, UK). IgGs were captured at a flow rate of 10 μl/min to give an immobilization level (RL) of ˜63 RU, the theoretical value to obtain an Rmax of ˜50 RU. The surface was then allowed to stabilize. Single cycle kinetic data was obtained with factor Bb (CompTech, Tyler, USA) as the analyte at a flow rate of 30 μl/min to minimize any potential mass transport limitations. Multiple repeats with the reference chimeric antibody were performed to check the stability of the surface and analyte over the kinetic cycles. The signal from the reference channel Fc1 (no antibody) was subtracted from that of Fc2, Fc3 and Fc4 to correct for differences in non-specific binding to a reference surface. A four point, two-fold dilution range from 0. 78 nM to 6. 25 nM factor Bb without regeneration between each concentration was used. The association phase for the four injections of increasing concentrations of factor Bb was monitored for 200 seconds each time and a single dissociation phase was measured for 200 seconds following the last injection of factor Bb. Regeneration of the Protein A surface was conducted using two injections of 10 mM glycine-HCL pH 1. 5.
Single cycle kinetics using cell culture supernatants were performed as described above. […] The relative KD was calculated by dividing the KD of the VH0/Vκ0 reference antibody by that of the humanized variant assayed in the same experiment.

[3] = molecular target: T1, Homo sapiens factor Bb protein; test: BLI Octet, biotinylated antibody on SA biosensors
Protocol: (§2) Briefly, biotinylated antibodies were loaded onto SA Biosensors equilibrated in PBS, 0.1% BSA, 0.02% Tween-20 (assay buffer). After a 60 second baseline in assay buffer, antibodies were loaded onto the probes for 180 seconds, followed by another 60 second baseline. Association to human (Comptech) or cynomolgus monkey factor Bb (purified in-house) was measured for 300 seconds, followed by a 300 second dissociation. Kinetic parameters were calculated by the Octet Analysis software using a 1:1 binding model.

[4] = molecular target: T1, Homo sapiens factor Bb protein; test: BLI Octet, biotinylated antibody on SA biosensors; remark: listed apart in the source
Protocol: as §2
To determine whether the modification of the Fc portion of the antibodies affected affinity and species cross-reactivity, VH4/VK6-IgG4v2 and VH6/VK7-IgG4v2 were tested alongside their parental antibodies, VH4/VK6 and VH6/VK7, respectively, for their ability to bind human and cynomolgus monkey factor Bb by BLI. VH4/VK6-IgG4v2 and VH6/VK7-IgG4v2 contain mutations in the Fc region that increase the affinity for an Fc receptor.

[5] = molecular target: T1, Homo sapiens factor Bb protein; test: SPR multi-cycle kinetics; ratio against VH0/Vκ0 on the same chip
Protocol: (§3) Antibodies were diluted in running buffer to a final concentration of 0.5 μg/ml. At the start of each cycle, antibodies were loaded onto Fc2, Fc3 and Fc4 of the Protein A chip (GE Healthcare, Little Chalfont, UK). IgGs were captured at a flow rate of 10 μl/min to give an immobilisation level (RL) of ˜63 RU, the theoretical value to obtain an Rmax of ˜50 RU. The surface was then allowed to stabilize. Kinetic data was obtained with factor Bb as analyte and using a flow rate of 30 μl/min to minimize any potential mass transfer effects. Multiple repeats of a blank and a repeat of a single concentration of the analyte were programmed into the kinetic run in order to check the stability of both the surface and analyte over the kinetic cycles. For kinetic analysis, a two-fold dilution range was selected from 12. 5 nM to 0. 391 nM factor Bb. The association phase of factor Bb was monitored for 360 seconds and the dissociation phase was monitored for 600 seconds. Regeneration of the Protein A surface was conducted using two injections of 10 mM glycine-HCL pH 1. 5. The signal from the reference channel Fc1 was subtracted from that of Fc2, Fc3 and Fc4 to correct for differences in non-specific binding to a reference surface, and a global Rmax parameter was used in the 1-to-1 binding model.
(§4) The sensorgrams and fitted data for the binding of chimeric antibodies and humanized variants to factor Bb are shown in FIGS. 4A-4C. The relative KD was calculated by dividing the KD of the humanized variants by that of the chimeric antibody on the same chip. The kinetic parameters measured for the interaction of factor Bb with chimeric antibodies and humanized variants are shown in Table 10.

[6] = molecular target: T1, Homo sapiens factor Bb protein; test: SPR multi-cycle kinetics, IgG on Protein A chip, factor Bb analyte
Protocol: as §3, §4

[7] = molecular target: T1, Homo sapiens factor Bb protein; test: SPR single cycle kinetics, IgG on Protein A chip, factor Bb analyte
Protocol: In order to assess the binding of all humanized variants, single cycle kinetic analysis was performed on supernatants from transfected cell cultures. […] All single cycle kinetic experiments were run at 25° C. with HBS-P+running buffer (pH 7. 4) (GE Healthcare, Little Chalfont, UK).
as §1
Single cycle kinetics using cell culture supernatants were performed as described above.

[8] = molecular target: T1, Homo sapiens factor Bb protein; test: competition ELISA on coated factor Bb; competitor murine parental antibody
Protocol: Factor Bb was diluted in 1× PBS to 1.0 μg/ml and 100 μl/well was coated overnight at 4° C. on a 96-well ELISA plate. The following day the plates were blocked for two hours at room temperature with 1% casein/PBS before washing 2× with PBS pH 7.4. In a 96-well dilution plate a fixed concentration of murine parental antibody (0.5 μg/ml, final concentration) was added in equal volume to a four-fold titration series of test antibody (starting from 45 μg/ml to 0.01 μg/ml, final concentration) diluted in blocking buffer. After washing the plate 3× with PBS-T, 100 μl of chimeric/test antibody mix was added to the ELISA plate. After incubating at room temperature for one hour, the plate was washed 3× with PBS-T and 100 μl of anti-mouse IgG Fc-Specific HRP (Sigma, Dorset, UK) diluted 1:1000 in PBS-T was applied for one hour at room temperature to detect bound mouse antibody. For color development, the plate was washed 3× with PBS-T following which 100 μl of TMB substrate was added and incubated for approximately five minutes at room temperature. The reaction was stopped with 50 μl of 3.0 M hydrochloric acid and absorbance was read immediately using a DYNEX ® plate reader at 450 nm.
IC50 values were calculated for each variant and relative IC50 values were calculated by dividing the IC50 of the humanized variant by that of the chimeric antibody assayed on the same plate (Table 11).

[9] = molecular target: T1, Homo sapiens factor Bb protein; test: BLI, multi-cycle kinetics, antibody loaded on anti-hIgG Fc sensors, human factor Bb in solution (100 nM to 0.14 nM), 1:1 fit
Protocol: Multicycle kinetic analysis was performed on CHO and HEK-produced VH6/VK7-IgG4v2 antibodies using biolayer interferometry. Antibodies were diluted to 10 μg/mL in PBS+ 0.02%. Tween20, 0.1% BSA, 0.05% sodium azide and loaded onto anti-hIgG Fc sensors (pre-equilibrated in the same buffer) for 90 seconds followed by a 60-minute baseline in buffer. Binding of a concentration series of human factor Bb (Complement Technologies, #A155), ranging from 100 nM to 0.14 nM in 2-fold dilutions, was measured in a 300 second association in the same buffer, followed by a 300 second dissociation step.

[10] = molecular target: T1, Homo sapiens factor Bb protein; test: SPR single cycle kinetics; against cynomolgus monkey factor Bb
Protocol: (§5) The ability of VH4/VK6 and VH6/VK7 to bind to zymogen factor B and factor Bb from both human and cynomolgus monkey was determined by surface plasmon resonance using a Biacore T200. Human factor B and factor Bb were purchased from Comptech and cynomolgus monkey factor B and factor Bb were purified in-house. Briefly, the monoclonal antibodies were captured on a Biacore Series S Protein A chip in HBSP+ (10 mM HEPES, 150 mM NaCl, 0.05% P20 pH 7.4) at a flow rate of 30 μL/min. A five-point concentration series of each analyte was tested for binding using single cycle kinetics with a contact time of 180 seconds per concentration followed by a 600 sec dissociation at 25° C. and a flow rate of […]. Both human and cynomolgus monkey factor B started at a concentration of 500 nM followed by 2-fold dilutions, while human and cynomolgus monkey factor Bb started at concentrations of 30 nM and 150 nM, respectively, followed by 2-fold dilutions. Data were analyzed using the Biacore evaluation software using a 1:1 binding model. […] Binding to human or cynomolgus monkey factor B was barely detectable and the small signal that was observed was dominated by non-specific binding.

[11] = molecular target: T1, Homo sapiens factor Bb protein; test: SPR single cycle kinetics, antibody on Protein A chip, antigen analyte
Protocol: as §5

T1 sequence (P00751 260-764 limits assumed): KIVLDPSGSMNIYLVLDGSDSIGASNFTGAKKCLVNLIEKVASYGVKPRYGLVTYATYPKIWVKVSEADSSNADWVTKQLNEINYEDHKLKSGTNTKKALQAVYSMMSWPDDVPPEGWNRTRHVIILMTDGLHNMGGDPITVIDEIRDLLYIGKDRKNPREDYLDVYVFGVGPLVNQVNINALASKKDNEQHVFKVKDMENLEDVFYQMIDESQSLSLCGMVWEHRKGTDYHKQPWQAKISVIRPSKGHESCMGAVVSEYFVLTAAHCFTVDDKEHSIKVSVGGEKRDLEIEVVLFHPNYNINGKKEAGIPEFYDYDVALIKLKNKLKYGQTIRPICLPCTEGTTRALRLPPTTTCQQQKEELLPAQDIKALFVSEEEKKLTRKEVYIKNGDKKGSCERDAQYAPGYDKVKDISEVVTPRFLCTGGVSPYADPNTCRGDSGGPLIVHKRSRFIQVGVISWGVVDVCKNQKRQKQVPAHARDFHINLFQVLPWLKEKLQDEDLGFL

| Binder | AP Assay IC50 [1] [nM] | Relative KD [2] | Kd [3] [nM] | Kd [4] [nM] | Relative KD [5] | Kd [6] [nM] | koff [6] [s⁻¹] | kon [6] [M⁻¹ s⁻¹] | Kd [7] [nM] | koff [7] [s⁻¹] | kon [7] [M⁻¹ s⁻¹] | IC50 [8] [nM] | Kd [9] [nM] | fold higher affinity for human factor Bb compared to cynomolgus monkey factor Bb [10] [fold] | Kd [11] [nM] | koff [11] [s⁻¹] | kon [11] [M⁻¹ s⁻¹] |
| --- | --- | --- | --- | --- | --- | --- | --- | --- | --- | --- | --- | --- | --- | --- | --- | --- | --- |
| VH6/Vk7-IgG4v2-CHO (antibody) heavy chain: not shown light chain: DIQMTQSPSTLSASVGDRVTITCKASQDVGTAVAWYQQKPGKAPKLLIYWASTRHTGVPDRFSGSGSGTDFTLTISSLQAEDFAVYFCHQHSSNPLTFGQGTKLEIKRTVAAPSVFIFPPSDEQLKSGTASVVCLLNNFYPREAKVQWKVDNALQSGNSQESVTEQDSKDSTYSLSSTLTLSKADYEKHKVYACEVTHQGLSSPVTKSFNRGEC | – | – | – | – | – | – | – | – | – | – | – | – | 2.7 | – | – | – | – |
| VH4/Vκ6-IgG4v2 (antibody, also called VH4/VK6-IgG4v2) heavy: not shown light: DIVMTQSPSFLSASVGDRVTITCKASQDVGTAVAWYQQKPGKAPKLLIYWASTRHTGVPDRFTGSGSGTDFTLTISSLQSEDFAVYFCHQHSSNPLTFGQGTKLEIKRTVAAPSVFIFPPSDEQLKSGTASVVCLLNNFYPREAKVQWKVDNALQSGNSQESVTEQDSKDSTYSLSSTLTLSKADYEKHKVYACEVTHQGLSSPVTKSFNRGEC | – | – | – | 1.6 | – | – | – | – | – | – | – | – | – | ~10 | 2.26 | 0.000925 | 410000 |

Further lines, results first:

| AP Assay IC50 [1] [nM] | Relative KD [2] | Kd [3] [nM] | Kd [4] [nM] | Relative KD [5] | Kd [6] [nM] | koff [6] [s⁻¹] | kon [6] [M⁻¹ s⁻¹] | Kd [7] [nM] | koff [7] [s⁻¹] | kon [7] [M⁻¹ s⁻¹] | IC50 [8] [nM] | Kd [9] [nM] | fold higher affinity for human factor Bb compared to cynomolgus monkey factor Bb [10] [fold] | Kd [11] [nM] | koff [11] [s⁻¹] | kon [11] [M⁻¹ s⁻¹] | Binder |
| --- | --- | --- | --- | --- | --- | --- | --- | --- | --- | --- | --- | --- | --- | --- | --- | --- | --- |
| 22 | 1.25 | 1.6 | 1.6 | 1.08 | 2.14 | 0.000805 | 376000 | 2.22 | 0.000859 | 387000 | 1.02 | – | – | – | – | – | VH4/Vκ6-IgG4v1 (antibody, also called VH4/VK6; V46/VK6-IgG4v1) heavy: not shown light: DIVMTQSPSFLSASVGDRVTITCKASQDVGTAVAWYQQKPGKAPKLLIYWASTRHTGVPDRFTGSGSGTDFTLTISSLQSEDFAVYFCHQHSSNPLTFGQGTKLEIKRTVAAPSVFIFPPSDEQLKSGTASVVCLLNNFYPREAKVQWKVDNALQSGNSQESVTEQDSKDSTYSLSSTLTLSKADYEKHKVYACEVTHQGLSSPVTKSFNRGEC |
| 21 | 1.98 | 1.9 | 1.7 | 2.98 | 5.7 | 0.00124 | 218000 | 3.51 | 0.00221 | 630000 | 0.82 | – | – | – | – | – | VH6/Vκ7-IgG4v1 (antibody, also called VH6/VK7; VH6/VK7-IgG4v1) heavy: not shown light: DIQMTQSPSTLSASVGDRVTITCKASQDVGTAVAWYQQKPGKAPKLLIYWASTRHTGVPDRFSGSGSGTDFTLTISSLQAEDFAVYFCHQHSSNPLTFGQGTKLEIKRTVAAPSVFIFPPSDEQLKSGTASVVCLLNNFYPREAKVQWKVDNALQSGNSQESVTEQDSKDSTYSLSSTLTLSKADYEKHKVYACEVTHQGLSSPVTKSFNRGEC |

Source: patent publication US20210332115A1 (Sanofi, published 2021)
